We go through 36 variants from the Human Domainome abundance scans (Beltran et al. 2025).

B1: Glucocorticoid receptor, residues 419 to 494; numbered along this chain, P04150 (parent)
chain: KLCLVCSDEASGCHYGVLTCGSCKVFFKRAVEGQHNYLCAGRNDCIIDKIRRKNCPACRYRKCLQAGMNLEARKTK

± gives the uncertainty stated by the source.

The data set covers variants of B1. The experiment in a line: abundance fitness (aPCA) (normalised: wild type 0, dead -1); higher = more abundant; growth selection in yeast, the domain comes from the species named. To be noted: Homo sapiens.
Turning to KLCLVCSDEASGCHYGRLTCGSCKVFFKRAVEGQHNYLCAGRNDCIIDKIRRKNCPACRYRKCLQAGMNLEARKTK [V17R], the abundance fitness is -0.141 ± 0.049.

For KLCLVCSDEASGCHYGKLTCGSCKVFFKRAVEGQHNYLCAGRNDCIIDKIRRKNCPACRYRKCLQAGMNLEARKTK [V17K], the abundance fitness is -0.013 ± 0.38.

For the variant KLCLVCSDEASGCHYGYLTCGSCKVFFKRAVEGQHNYLCAGRNDCIIDKIRRKNCPACRYRKCLQAGMNLEARKTK [V17Y], the abundance fitness was -0.451 ± 0.1.

KLCLVCSDEASGCHYGSLTCGSCKVFFKRAVEGQHNYLCAGRNDCIIDKIRRKNCPACRYRKCLQAGMNLEARKTK [V17S]: the abundance fitness is -0.172 ± 0.052.

For the variant KLCLVCSDEASGCHYGELTCGSCKVFFKRAVEGQHNYLCAGRNDCIIDKIRRKNCPACRYRKCLQAGMNLEARKTK [V17E], the abundance fitness is -0.389 ± 0.062.

Turning to KLCLVCSDEASGCHYGWLTCGSCKVFFKRAVEGQHNYLCAGRNDCIIDKIRRKNCPACRYRKCLQAGMNLEARKTK [V17W], the abundance fitness is -0.641 ± 0.084.

KLCLVCSDEASGCHYGDLTCGSCKVFFKRAVEGQHNYLCAGRNDCIIDKIRRKNCPACRYRKCLQAGMNLEARKTK [V17D]: the abundance fitness is -0.405 ± 0.12.

Consider KLCLVCSDEASGCHYGCLTCGSCKVFFKRAVEGQHNYLCAGRNDCIIDKIRRKNCPACRYRKCLQAGMNLEARKTK [V17C], for which the abundance fitness is 0.057 ± 0.062.

Turning to KLCLVCSDEASGCHYGILTCGSCKVFFKRAVEGQHNYLCAGRNDCIIDKIRRKNCPACRYRKCLQAGMNLEARKTK [V17I], the abundance fitness came to 0.129 ± 0.095.

As to KLCLVCSDEASGCHYGPLTCGSCKVFFKRAVEGQHNYLCAGRNDCIIDKIRRKNCPACRYRKCLQAGMNLEARKTK [V17P], the abundance fitness is -0.215 ± 0.064.

As to KLCLVCSDEASGCHYGHLTCGSCKVFFKRAVEGQHNYLCAGRNDCIIDKIRRKNCPACRYRKCLQAGMNLEARKTK [V17H], the abundance fitness is -0.371 ± 0.098.

As for KLCLVCSDEASGCHYGQLTCGSCKVFFKRAVEGQHNYLCAGRNDCIIDKIRRKNCPACRYRKCLQAGMNLEARKTK [V17Q], the abundance fitness is -0.194 ± 0.047.

As to KLCLVCSDEASGCHYGMLTCGSCKVFFKRAVEGQHNYLCAGRNDCIIDKIRRKNCPACRYRKCLQAGMNLEARKTK [V17M], the abundance fitness is -0.379 ± 0.35.

For the variant KLCLVCSDEASGCHYGLLTCGSCKVFFKRAVEGQHNYLCAGRNDCIIDKIRRKNCPACRYRKCLQAGMNLEARKTK [V17L], the abundance fitness is -0.16 ± 0.038.

KLCLVCSDEASGCHYGFLTCGSCKVFFKRAVEGQHNYLCAGRNDCIIDKIRRKNCPACRYRKCLQAGMNLEARKTK [V17F]: the abundance fitness was -0.355 ± 0.084.

Consider KLCLVCSDEASGCHYGGLTCGSCKVFFKRAVEGQHNYLCAGRNDCIIDKIRRKNCPACRYRKCLQAGMNLEARKTK [V17G], for which the abundance fitness is -0.176 ± 0.036.

Regarding KLCLVCSDEASGCHYVVLTCGSCKVFFKRAVEGQHNYLCAGRNDCIIDKIRRKNCPACRYRKCLQAGMNLEARKTK [G16V], the abundance fitness is -0.738 ± 0.079.

Take KLCLVCSDEASGCHYSVLTCGSCKVFFKRAVEGQHNYLCAGRNDCIIDKIRRKNCPACRYRKCLQAGMNLEARKTK [G16S]: the abundance fitness was -0.182 ± 0.04.

On to KLCLVCSDEASGCHYPVLTCGSCKVFFKRAVEGQHNYLCAGRNDCIIDKIRRKNCPACRYRKCLQAGMNLEARKTK [G16P], for which the abundance fitness was -0.302 ± 0.051.

Consider KLCLVCSDEASGCHYQVLTCGSCKVFFKRAVEGQHNYLCAGRNDCIIDKIRRKNCPACRYRKCLQAGMNLEARKTK [G16Q], for which the abundance fitness is -0.225 ± 0.049.

Regarding KLCLVCSDEASGCHYTVLTCGSCKVFFKRAVEGQHNYLCAGRNDCIIDKIRRKNCPACRYRKCLQAGMNLEARKTK [G16T], the abundance fitness was -0.264 ± 0.049.

With KLCLVCSDEASGCHYRVLTCGSCKVFFKRAVEGQHNYLCAGRNDCIIDKIRRKNCPACRYRKCLQAGMNLEARKTK [G16R], the abundance fitness was -0.318 ± 0.04.

Turning to KLCLVCSDEASGCHYWVLTCGSCKVFFKRAVEGQHNYLCAGRNDCIIDKIRRKNCPACRYRKCLQAGMNLEARKTK [G16W], the abundance fitness was -0.83 ± 0.13.

On to KLCLVCSDEASGCHYNVLTCGSCKVFFKRAVEGQHNYLCAGRNDCIIDKIRRKNCPACRYRKCLQAGMNLEARKTK [G16N], for which the abundance fitness came out at 0 ± 0.085.

For the variant KLCLVCSDEASGCHYGVGTCGSCKVFFKRAVEGQHNYLCAGRNDCIIDKIRRKNCPACRYRKCLQAGMNLEARKTK [L18G], the abundance fitness was -0.191 ± 0.042.

For the variant KLCLVCSDEASGCHYGVNTCGSCKVFFKRAVEGQHNYLCAGRNDCIIDKIRRKNCPACRYRKCLQAGMNLEARKTK [L18N], the abundance fitness is -0.1 ± 0.081.

Regarding KLCLVCSDEASGCHYGVMTCGSCKVFFKRAVEGQHNYLCAGRNDCIIDKIRRKNCPACRYRKCLQAGMNLEARKTK [L18M], the abundance fitness was -0.077 ± 0.056.

For KLCLVCSDEASGCHYGVETCGSCKVFFKRAVEGQHNYLCAGRNDCIIDKIRRKNCPACRYRKCLQAGMNLEARKTK [L18E], the abundance fitness is -0.045 ± 0.052.

Consider KLCLVCSDEASGCHYGVDTCGSCKVFFKRAVEGQHNYLCAGRNDCIIDKIRRKNCPACRYRKCLQAGMNLEARKTK [L18D], for which the abundance fitness worked out at 0.062 ± 0.062.

Regarding KLCLVCSDEASGCHYGVQTCGSCKVFFKRAVEGQHNYLCAGRNDCIIDKIRRKNCPACRYRKCLQAGMNLEARKTK [L18Q], the abundance fitness was -0.087 ± 0.05.

For KLCLVCSDEASGCHYGVHTCGSCKVFFKRAVEGQHNYLCAGRNDCIIDKIRRKNCPACRYRKCLQAGMNLEARKTK [L18H], the abundance fitness was -0.012 ± 0.08.

KLCLVCSDEASGCHYGVPTCGSCKVFFKRAVEGQHNYLCAGRNDCIIDKIRRKNCPACRYRKCLQAGMNLEARKTK [L18P]: the abundance fitness is -0.004 ± 0.055.

Turning to KLCLVCSDEASGCHYGVFTCGSCKVFFKRAVEGQHNYLCAGRNDCIIDKIRRKNCPACRYRKCLQAGMNLEARKTK [L18F], the abundance fitness was -0.002 ± 0.067.

Consider KLCLVCSDEASGCHYGVKTCGSCKVFFKRAVEGQHNYLCAGRNDCIIDKIRRKNCPACRYRKCLQAGMNLEARKTK [L18K], for which the abundance fitness is -0.088 ± 0.044.

In the case of KLCLVCSDEASGCHYGVITCGSCKVFFKRAVEGQHNYLCAGRNDCIIDKIRRKNCPACRYRKCLQAGMNLEARKTK [L18I], the abundance fitness was 0.035 ± 0.082.

KLCLVCSDEASGCHYGVATCGSCKVFFKRAVEGQHNYLCAGRNDCIIDKIRRKNCPACRYRKCLQAGMNLEARKTK [L18A]: the abundance fitness was 0.097 ± 0.044.
